From patent US20020025923A1

Molecular target: PNAd (peripheral node addressin), MECA-79 purified human tonsil lysate
Test: precipitation of PNAd with the chimera

B1: L-selectin/IgG chimera (entire extracellular domain of murine L-selectin fused to the Fc domain of human IgG1) (Fc fusion, UniProt P18337 39-332, looked up, not shown: a dimerising Fc or GST)
chain: WTYHYSEKPMNWENARKFCKQNYTDLVAIQNKREIEYLENTLPKSPYYYWIGIRKIGKMWTWVGTNKTLTKEAENWGAGEPNNKKSKEDCVEIYIKRERDSGKWNDDACHKRKAALCYTASCQPGSCNGRGECVETINNHTCICDAGYYGPQCQYVVQCEPLEAPELGTMDCIHPLGNFSFQSKCAFNCSEGRELLGTAETQCGASGNWSSPEPICQVVQCEPLEAPELGTMDCIHPLGNFSFQSKCAFNCSEGRELLGTAETQCGASGNWSSPEPICQETNRSFSKIKEGDYN
percent precipitated: > 90%
